Results from patent US20250101437, “[…] FOR […] VARIANTS OF A TARGET ANALYTE, METHODS OF MAKING AND USES […]” (McMaster University, published 2025).

Legend:
[1] = target: T1, SARS-CoV-2 spike S1 subunit, original Wuhan (SARS-CoV-2 (Wuhan), UniProt P0DTC2 P0DTC2:16-685); assay: competition; conditions: tags: Sino Biological 40591-V08B1
[2] = target: SARS-CoV-2 spike S1 subunit, original Wuhan (SARS-CoV-2 (Wuhan), UniProt P0DTC2 P0DTC2:16-685); assay: filter; dot blot; conditions: tags: Sino Biological 40591-V08B1, label: 5'-32P
[3] = target: SARS-CoV-2 spike trimer, original Wuhan (WHS) (SARS-CoV-2 (Wuhan-Hu-1), UniProt P0DTC2 P0DTC2:14-1213); assay: filter; […]; binding buffer ([…], Mg, Tween-20, pH 7.4); conditions: tags: full-length trimeric spike, Expi293 cells, Ni-NTA purified; chain copies: 3 (stated trimeric); label: 5'-32P
OC43 spike RBD = OC43 spike RBD (Human coronavirus OC43, UniProt P36334 P36334:333-607); assay: filter; dot blot; very weak binding; conditions: label: 5'-32P; four-way junction (proposed)
OC43 spike RBD, sequence (P36334 333-607, one chain of several): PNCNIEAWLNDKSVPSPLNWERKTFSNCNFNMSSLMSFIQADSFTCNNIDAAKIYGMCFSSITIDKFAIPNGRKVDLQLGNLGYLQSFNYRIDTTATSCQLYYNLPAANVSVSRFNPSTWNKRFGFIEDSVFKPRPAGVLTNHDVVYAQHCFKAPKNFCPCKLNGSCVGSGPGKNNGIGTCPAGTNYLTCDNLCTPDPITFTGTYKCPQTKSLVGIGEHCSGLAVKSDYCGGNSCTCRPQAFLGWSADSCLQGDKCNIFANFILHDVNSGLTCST

229E spike RBD = 229E spike RBD (Human coronavirus 229E, UniProt P15423 P15423:293-435); assay: filter; dot blot; very weak binding; conditions: label: 5'-32P; four-way junction (proposed)
229E spike RBD, sequence (P15423 293-435, one chain of several): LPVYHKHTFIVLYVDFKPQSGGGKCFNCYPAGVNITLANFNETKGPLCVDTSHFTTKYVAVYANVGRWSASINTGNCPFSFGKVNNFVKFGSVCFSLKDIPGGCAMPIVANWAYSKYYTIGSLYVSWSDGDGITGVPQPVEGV

NL63 spike RBD = NL63 spike RBD (Human coronavirus NL63, UniProt Q6Q1S2 Q6Q1S2:481-616); assay: filter; 50 nM protein; conditions: label: 5'-32P; four-way junction (proposed)
NL63 spike RBD, sequence (Q6Q1S2 481-616, one chain of several): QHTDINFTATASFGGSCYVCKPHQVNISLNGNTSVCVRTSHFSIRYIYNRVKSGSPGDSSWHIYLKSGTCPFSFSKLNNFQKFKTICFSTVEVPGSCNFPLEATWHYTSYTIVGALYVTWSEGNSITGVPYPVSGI

alpha-thrombin = alpha-thrombin (Homo sapiens, UniProt P00734;P00734 P00734:328-363,P00734:364-622); assay: filter; 50 nM protein; conditions: tags: Sigma-Aldrich; label: 5'-32P; four-way junction (proposed)
Bovine serum albumin = Bovine serum albumin (Bos taurus, UniProt P02769 P02769:25-607); assay: filter; 50 nM protein; conditions: tags: Sigma-Aldrich; label: 5'-32P; four-way junction (proposed)
Bovine serum albumin, sequence (P02769 25-607, one chain of several): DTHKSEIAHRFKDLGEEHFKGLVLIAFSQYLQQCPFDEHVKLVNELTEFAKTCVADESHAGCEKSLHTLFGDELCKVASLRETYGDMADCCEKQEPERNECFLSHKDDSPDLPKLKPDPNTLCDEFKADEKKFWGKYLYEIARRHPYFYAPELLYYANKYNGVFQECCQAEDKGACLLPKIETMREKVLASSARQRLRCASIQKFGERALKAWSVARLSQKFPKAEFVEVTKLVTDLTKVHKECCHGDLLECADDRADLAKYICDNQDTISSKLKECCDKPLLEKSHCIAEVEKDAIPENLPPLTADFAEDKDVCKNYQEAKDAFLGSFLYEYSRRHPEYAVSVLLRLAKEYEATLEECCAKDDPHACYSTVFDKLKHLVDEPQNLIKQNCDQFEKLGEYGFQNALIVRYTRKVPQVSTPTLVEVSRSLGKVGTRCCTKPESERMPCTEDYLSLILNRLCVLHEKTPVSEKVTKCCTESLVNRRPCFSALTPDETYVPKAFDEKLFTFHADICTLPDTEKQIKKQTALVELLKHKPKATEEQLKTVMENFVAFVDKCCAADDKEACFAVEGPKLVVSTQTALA

[4] = target: T1, SARS-CoV-2 spike S1 subunit, original …; assay: filter; dot blot; conditions: tags: Sino Biological 40591-V08B1; label: 5'-32P
SARS-CoV-1 spike protein = SARS-CoV-1 spike protein (SARS-CoV-1, UniProt P59594 P59594:14-1195); assay: filter; conditions: label: 5'-32P
[5] = target: SARS-CoV-2 spike (WH) on pseudotyped lentivirus (SARS-CoV-2 (Wuhan-Hu-1), UniProt P0DTC2 P0DTC2:14-1273); assay: filter; conditions: protein: virion; tags: pseudotyped lentivirus, BEI NR-52948 kit; chain copies: 3; label: 5'-32P; four-way junction (proposed)
SARS-CoV-1 spike RBD = SARS-CoV-1 spike RBD (SARS-CoV-1, UniProt P59594 P59594:306-527); assay: filter; conditions: label: 5'-32P
MERS-CoV spike RBD = MERS-CoV spike RBD (MERS-CoV, UniProt K9N5Q8 K9N5Q8:367-606); assay: filter; conditions: label: 5'-32P

B1: Mutant Control (MC, shuffled MSA52) (ssDNA)
DNA: TCTTTCGTGCCATCCTGCGGGTGGCTGTCCGAGGCTGGTGGCTCTGCAAGTGCCACGCTTTATCTGAGGTTCGCCGGTA
- binding result [1]: no binding

B2: MSA52-T4 (ssDNA)
DNA: TTACGTCAAGGTGTCACTCCGTAGGGTTTGGCTCCGGGCCTGGCGTCGGTCGCGAAGCATCTCTTTGGCGTG
- Kd [2]: 6 nM

B3: MSA52-T5 (ssDNA)
DNA: ACGCCAAGGTGTCACTCCGTAGGGTTTGGCTCCGGGCCTGGCGTCGGTCGCGAAGCATCTCCTTGGCGT
- Kd ([2]; four-way junction (proposed)): 5.5 nM

B4: MSA52-T1 (ssDNA)
DNA: TTACGTCAAGGTGTCATTGGCTCCGGGCCTGGCGTCGGTCGTCTCTCGCGAAGCATCTCTTTGGCGTG
- Kd [2]: 61.8 nM

B5: MSA52-T3 (ssDNA)
DNA: TTACGTCAAGGTGTCACTCCGTAGGGTTTGGCTCCGGGCCTGGCATCTCTTTGGCGTG
- Kd [2]: 94.8 nM

B6: MSA52 (ssDNA)
DNA: TTACGTCAAGGTGTCACTCCGTAGGGTTTGGCTCCGGGCCTGGCGTCGGTCGTCTCTCGCGAAGCATCTCTTTGGCGTG
- Kd [3]: 3.6 nM
- Kd (OC43 spike RBD): > 200 nM
- Kd (229E spike RBD): > 200 nM
- binding result (NL63 spike RBD): no binding
- binding result (alpha-thrombin): no binding
- binding result (Bovine serum albumin): no binding
- Kd [4]: 6.6 nM
- Kd (SARS-CoV-1 spike protein): > 150 nM
- Kd [5]: 0.0184 nM
- binding result (SARS-CoV-1 spike RBD): no binding
- binding result (MERS-CoV spike RBD): no binding

B7: MSA52-T2 (ssDNA)
DNA: TTACGTCAAGGTGTCACTCCGTAGGGTTTGCTGGCGTCGGTCGTCTCTCGCGAAGCATCTCTTTGGCGTG
- Kd [2]: 53.4 nM
